For three sequences, binding results are on record in article PMC2858704.

The data set deals with T1, PefR (Gbs1402) (Streptococcus agalactiae NEM316) (UniProt Q8E4J9).
T1 sequence: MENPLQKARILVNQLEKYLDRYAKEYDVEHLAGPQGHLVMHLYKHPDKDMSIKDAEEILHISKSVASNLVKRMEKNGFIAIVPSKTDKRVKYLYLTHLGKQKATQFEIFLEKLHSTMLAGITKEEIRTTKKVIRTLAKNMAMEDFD
Kind of data set: EMSA. Conditions: EMSA: 5% glycerol, 20 mM Tris-HCl pH 8, 50 mM KCl, 0.2 mM MgCl2, 1 mM EDTA, 0.2 mM DTT, 0.3 uM BSA, 15 ul, 37 C 20 min; 8% PAGE in 1x TBE, ethidium bromide ….
Turning to “CTTGTTGAGCCGTTGACAACGAAATGTTAAAGCTATTCATCAAAGTTGGGATAGCCGTTCCCAAACTTGTCTGATTTAACACCCCTGCAAATGTAGCAATCAACAATAAGGTGATC (double strand) [control pefA internal fragment (116 bp)]”, the binding result is given as “no binding”. For the sequence “GCGTAGAAGTCATTAAATGGAGAACGCTTTATTAGGAAAAATAGTGGGGAGATATTTTAGAAAAAGGAAATAATGATGTTTTGAAAAAAATAGTTTCTATGAGAATCTTTTTCTTGACAATAAAATTTAGCTATTATAAAATAGTTCTCACGATAACTAAAATAATGATTTTTTCAGAAAATAATATTATTTATTGATTAAAAAATCAAAAAATAACCTTATAAGACCTATTTGTTATTCTTAAAAGATATTAGTTAAAATCAGAAATAGAGATTGGAGATA (double strand) [pefAB promoter fragment (281 bp)]”, the binding result is recorded as “binds”. Under “ATTTGTATTTTACTATCATTTACATTAAAAATCAATATAAATTTATAATTAAAAATATAAAAAGCGAACATATATTTTTAATATTAAAAAGTAAGCGAAATCATTTTTTATTTGACGAATGATAGGTTTTTTTTAGAAATATTAATGTAAAAATAGTTCTCACGGTAACTTTTAATTGACAATTAATAAAGGTTGTTTTAAAATAGTTCTCACGATAACTATTAAAGGAGTATTATTATGGAGAATC (double strand) [pefRCD promoter fragment (248 bp)]” stands “binds”.
